Data taken from patent US20250304636A1 (H LEE MOFFITT CANCER CENTER AND RESEARCH INSTITUTE, published 2025).

Molecular target: T1, Syk (UniProt P43405 1-635, limits assumed)
T1 construct: also called Syk kinase; pcDNA3-Syk
Test: co-immunoprecipitation from co-transfected AD293 cells
Procedure: AD293 cells (a cell line derived from HEK293 with improved cell adherence and plaque formation, Agilent) were washed with Dulbecco's PBS (DPBS), and resuspended in 2.0 μg/ml of anti-human TREM-1 antibody (R&D Systems) on ice for 30 min. After washing with DPBS, cells were incubated with 1.0 μg/ml of Affinipure rabbit anti-mouse IgG (H+L) Ab (Jackson Immunoresearch) at 37° C. for 10 min. Cells were then scraped off the plates and followed by centrifugation at 400 g for 10 minutes at 4° C. Cells were washed twice with cold 1×DPBS and lysed on ice for 30 min at 4° C. in 1 ml of lysis buffer (1% NP-40, 10 mM Tris, 150 mM NaCl, 0.5 mM phenylmethylsulfonyl fluoride, 10 mM iodoacetamide, 50 mM NaF, 1 mM ethylenediamenetetraacetic acid, 1 mM sodium orthovanadate, 0.25% sodium Deoxycholate, 10 μl Ala-Ala-Phe p-nitroanilide (SIGMA), 10 μl protease cocktail I (SIGMA cat #P2850) and 10 μl protease cocktail II (SIGMA cat #P5726). Cell lysates were centrifuged at 12,000 g at 4° C. for 15 minutes to remove nuclei and cell debris, after which the clarified lysate supernatant was isolated. The protein concentration of the soluble extracts was determined using the Bradford protein assay (Bio-Rad, Hercules, CA, USA) following manufacturer protocol. Western blots were blocked in PBST containing 4% BSA for 1 h and then incubated overnight at 4° C. in primary antibodies. […]

B1: wild-type DAP12 (12-kilodalton DNAX activating protein) (other)
chain: IALAVYFLGRLVPRGRGAAEAATRKQRITETESPYQELQGQRSDVYSDLNTQRPYYK
notes: Over-expressed from pcDNA3 in AD293 cells together with pcDNA3-Syk; co-immunoprecipitated from cell lysates; No signal peptide limits are stated; also called WT DAP12; WT
B1: no binding.
